US20190270826A1 (Janssen / Centocor, published 2019)
Changes are numbered by the printed parent chain. In names and notes the source's numbering stands.

B1: IAPB54 (antibody, human IgG4 S228P, lambda, F234A L235A, V domains shown)
VH: QVQLVQSGSELKKPGASVKVSCKASGYTFNTYAMNWVRQAPGQGLEWMGWINTNTGNPTYAQGFTGRFVFSLDTSVSTAYLQISSLKAEDTAVYYCARRYFDWLLGAFDIWGQGTMVTVSS
VL: QSALTQPRSVSGSPGHSVTISCTGTSSDVGDYNYVSWYQQRPGKVPKLLIYDVSKRPSGVPDRFSGSKSGNTASLTISGLQAEDEAIYFCCSYAGNYNVVFGGGTKLTVLG
notes: IgG4-PAA; also called 17B04 with human IgG4-PAA
B2: IAPB63 (antibody, human IgG4 S228P, lambda, F234A L235A)
heavy: not shown
light: QSALTQPRSVSGSPGHSVTISCTGTSSDVGDYNYVSWYQQRPGKVPKLLIYDVSKRPSGVPDRFSGSKSGNTASLTISGLQAEDEAIYFCASYAGNYNVVFGGGTKLTVLGQPKAAPSVTLFPPSSEELQANKATLVCLISDFYPGAVTVAWKADSSPVKAGVETTTPSKQSNNKYAASSYLSLTPEQWKSHRSYSCQVTHEGSTVEKTVAPTECS
notes: IgG4-PAA; whole chains; also called IAPB54-LC-C91A

Assays:
[1] = target: T1, recombinant human IL1RAP ECD (human, UniProt Q9NPH3 21-367); assay: SPR, summary
T1 construct: His-tagged; also called hIL1RAP-ECD; rhuIL1RAP
T1 sequence: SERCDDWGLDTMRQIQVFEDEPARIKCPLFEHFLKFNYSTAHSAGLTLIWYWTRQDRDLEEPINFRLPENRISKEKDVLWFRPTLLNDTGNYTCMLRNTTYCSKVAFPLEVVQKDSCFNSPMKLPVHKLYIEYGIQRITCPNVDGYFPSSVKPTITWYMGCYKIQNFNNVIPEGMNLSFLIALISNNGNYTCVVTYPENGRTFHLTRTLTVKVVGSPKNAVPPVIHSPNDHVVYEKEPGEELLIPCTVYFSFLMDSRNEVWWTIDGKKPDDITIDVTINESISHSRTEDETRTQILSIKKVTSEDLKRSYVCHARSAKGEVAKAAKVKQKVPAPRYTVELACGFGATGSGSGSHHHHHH

[2] = target: T1, recombinant human IL1RAP ECD; assay: SPR (ProteOn)
[3] = target: T2, recombinant cyno IL1RAP ECD (cynomolgus monkey, UniProt P59822 21-367 (rhesus entry)); assay: recombinant protein
T2 construct: also called rcynoIL1RAP
T2 sequence: T1 sequence with L183F, T273P, K326T

[4] = target: T3, cyno IL1RAP ECD displayed on HEK-293F cells (pDisplay) (cynomolgus monkey, UniProt P59822 21-367 (rhesus entry)); assay: HEK-293F cells (MSD)
T3 sequence: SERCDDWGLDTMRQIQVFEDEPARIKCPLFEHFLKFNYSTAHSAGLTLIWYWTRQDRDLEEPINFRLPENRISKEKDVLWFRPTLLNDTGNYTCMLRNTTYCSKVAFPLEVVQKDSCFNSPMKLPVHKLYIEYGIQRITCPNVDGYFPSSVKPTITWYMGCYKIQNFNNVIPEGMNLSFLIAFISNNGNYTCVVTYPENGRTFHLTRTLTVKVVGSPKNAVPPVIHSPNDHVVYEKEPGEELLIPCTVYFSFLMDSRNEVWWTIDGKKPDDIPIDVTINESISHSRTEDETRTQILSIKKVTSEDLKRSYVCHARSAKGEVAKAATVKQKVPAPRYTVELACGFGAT

[5] = target: T1, recombinant human IL1RAP ECD; assay: SPR; KD against parent IAPB54
human FcRn = target: T4, human FcRn (human, UniProt P55899 24-297; P61769 21-119, limits assumed); assay: AlphaScreen competition, human FcRn (n=1); displaced: biotinylated control mAb B21M WT IgG1 (m27); pH 6.0
T4 construct: GST-tagged
Text: (§1) Measurements were made using an AlphaScreen™ assay (Amplified Luminescent Proximity Homogeneous Assay (ALPHA), PerkinElmer, Wellesley, Mass.), a bead-based luminescent proximity assay. Laser excitation of a donor bead excites oxygen, which if sufficiently close to the acceptor bead generates a cascade of chemiluminescent events, ultimately leading to fluorescence emission at 520-620 nm.

human FcγRIIb = target: T5, human FcγRIIb (human, UniProt P31994 43-217, limits assumed); assay: AlphaScreen competition, human FcγRIIb (n=1); displaced: biotinylated control mAb B21M hIgG1 WT; pH 7.2
T5 construct: GST-tagged
T5 sequence (looked up): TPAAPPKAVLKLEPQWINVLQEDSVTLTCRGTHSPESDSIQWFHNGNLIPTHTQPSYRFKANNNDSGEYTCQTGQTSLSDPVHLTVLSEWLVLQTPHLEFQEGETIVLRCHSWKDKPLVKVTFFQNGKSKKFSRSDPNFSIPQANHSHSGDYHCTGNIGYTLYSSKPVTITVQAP
Text: as §1

human FcγRI = target: T6, human FcγRI (human, UniProt P12314 16-292, limits assumed); assay: AlphaScreen competition, human FcγRI (n=1); displaced: biotinylated control mAb B21M hIgG1 AlaAla; pH 7.2
T6 construct: GST-tagged, on glutathione acceptor beads; also called FcγRT [sic]
Text: as §1

Binder	Kd [1]	Kd [2]	koff [2]	kon [2]	binding result [3]	binding result [4]	Fold Different from parent [5]	IC50 (read off the curve) (human FcRn)	binding result (human FcγRIIb)	IC50 (read off the curve) (human FcγRI)
B1	0.58 nM	0.0775 nM	7.48e-05 s⁻¹	965000 M⁻¹ s⁻¹	binds	binds	1 fold	–	–	–
B2	0.11 nM	0.108 nM	9.76e-05 s⁻¹	900000 M⁻¹ s⁻¹	–	–	1.4 fold	~200 nM	binds	~90 nM
